According to publication PMC2800831:
pKd: −log10 of the molar value.

How the values were obtained:
[1] = target: Recombinant mouse fibulin-5 (mouse) (UniProt Q9WVH9); test: SPR
[2] = target: Recombinant mouse fibulin-2 (mouse) (UniProt P37889); test: SPR
Sequence of UniProt P37889 (P37889 27-1221): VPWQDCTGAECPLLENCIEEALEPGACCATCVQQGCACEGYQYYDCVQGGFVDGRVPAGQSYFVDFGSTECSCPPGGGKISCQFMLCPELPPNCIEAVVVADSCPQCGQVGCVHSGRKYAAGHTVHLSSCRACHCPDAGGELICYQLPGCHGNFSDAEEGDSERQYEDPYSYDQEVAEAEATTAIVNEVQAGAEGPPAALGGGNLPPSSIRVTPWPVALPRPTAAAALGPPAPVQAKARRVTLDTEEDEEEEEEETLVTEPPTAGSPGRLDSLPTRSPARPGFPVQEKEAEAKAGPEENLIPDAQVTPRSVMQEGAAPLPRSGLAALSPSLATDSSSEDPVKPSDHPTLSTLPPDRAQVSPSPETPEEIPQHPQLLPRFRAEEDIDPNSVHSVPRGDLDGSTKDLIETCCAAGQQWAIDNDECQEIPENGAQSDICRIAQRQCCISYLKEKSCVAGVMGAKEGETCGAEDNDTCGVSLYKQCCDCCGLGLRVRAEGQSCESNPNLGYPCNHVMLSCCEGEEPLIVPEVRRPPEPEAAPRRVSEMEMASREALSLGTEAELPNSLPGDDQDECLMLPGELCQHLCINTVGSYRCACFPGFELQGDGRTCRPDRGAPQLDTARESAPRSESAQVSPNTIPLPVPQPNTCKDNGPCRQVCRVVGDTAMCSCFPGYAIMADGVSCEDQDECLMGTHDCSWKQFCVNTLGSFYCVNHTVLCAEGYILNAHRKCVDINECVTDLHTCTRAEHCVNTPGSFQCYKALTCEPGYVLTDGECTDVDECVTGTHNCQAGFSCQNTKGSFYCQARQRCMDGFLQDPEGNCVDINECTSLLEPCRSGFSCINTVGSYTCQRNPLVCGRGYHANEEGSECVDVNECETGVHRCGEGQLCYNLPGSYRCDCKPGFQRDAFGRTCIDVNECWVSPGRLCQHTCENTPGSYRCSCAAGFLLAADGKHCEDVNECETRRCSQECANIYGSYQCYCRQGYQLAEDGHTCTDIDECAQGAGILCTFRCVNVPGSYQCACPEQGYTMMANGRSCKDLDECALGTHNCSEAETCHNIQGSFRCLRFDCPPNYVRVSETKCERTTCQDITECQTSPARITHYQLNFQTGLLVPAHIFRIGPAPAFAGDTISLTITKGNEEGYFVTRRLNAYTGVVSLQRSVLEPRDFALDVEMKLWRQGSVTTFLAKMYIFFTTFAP

Sequence of UniProt Q9WVH9 (Q9WVH9 24-448): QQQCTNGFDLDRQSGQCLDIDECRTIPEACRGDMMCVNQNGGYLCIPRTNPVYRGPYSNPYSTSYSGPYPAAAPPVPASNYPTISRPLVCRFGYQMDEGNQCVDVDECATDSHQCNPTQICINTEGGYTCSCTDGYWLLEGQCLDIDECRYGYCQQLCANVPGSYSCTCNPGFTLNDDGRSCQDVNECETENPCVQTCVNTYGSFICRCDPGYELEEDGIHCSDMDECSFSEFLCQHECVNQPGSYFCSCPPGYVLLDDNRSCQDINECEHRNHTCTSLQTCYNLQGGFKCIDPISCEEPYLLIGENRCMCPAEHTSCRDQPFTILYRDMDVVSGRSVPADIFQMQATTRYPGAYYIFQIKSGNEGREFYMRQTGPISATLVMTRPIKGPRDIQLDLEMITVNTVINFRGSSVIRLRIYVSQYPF

Row | pKd [1] | pKd [2] | Substance
1 | 7.00 | – | Recombinant mouse fibulin-2 (from UniProt P37889 27-1221) (natural protein)
2 | – | 5.78 | Recombinant mouse fibulin-5 (from UniProt Q9WVH9 24-448) (natural protein)
